Measured values taken from the DeepSol protein solubility set.

test: soluble on expression in E. coli; label from the status in PepcDB or PDB records

| Sequence | soluble on expression in E. coli |
| --- | --- |
| MGSDKIHHHHHHLKQFRRNYSDPNRGPTGKGVAKYQALKHTCQVCPSKMKCCPKADARKITREEHEDARQVARKIAETKQYVISMRLKKKVEMLFAHLKRILGLGRLRLRDPSRDHGYAMTLPGTACSASDEFLLAATAQNLRKLAKTFPAPQQTRKA | not soluble |
| MGSDKIHHHHHHLLGDDPFLVINGDVFIDTLPVMPELKSINPDNGCLAHLWLVENPSQHPNGDFGFVSQEGVTTAELSQGPLSADLKLNFTFSGIGLYHPQLFDDIPEGPVPLGPLLREKMALGQVQGQLHRSFWCDVGTLERLAQLETRLELAARR | not soluble |
| MGSDKIHHHHHHLPTSVSPISYQLTVKTYLPGYGYTADKNNLTFEGQVLIELNITKSIKKVSLNSKDLNYTEEFIKKSSILVNGKSIAFTLDDKQSTHEKIFFNLDETVEPTTSATLKVAFGAPLRTDMSGLYQTTYTNSKGESKMAAVTQMEPVYARRMVPCFDEPAYKATWTVTVIHPNKTVAVSNGIEDKVEDGQPGFIISTFKPTPRMSSYLLAIFISEFEYNEATTKSGVRFRVWSRPEEKNSTMYAVEAGVKCLEYYEKYYNISFPLPKQDMVALPDFSAGAMENWGLITYRESALLYDPRIYSGSQKRRVAVVIAHELAHQWFGNLVTLKWWNDLWLNEGFATLVEYLGTDEISDGNMRMREWFTMDALWSALAADSVASTHPLTFKIDKAMEVLDSFDSVTYDKG | not soluble |
| MGSDKIHHHHHHLSGQQDDVEDGMDQDTLTRIAEALERMAPVPQSTPDFSAASGFVWHVEPDRLEPVPEINRVELDLLVGIDRSRDTLLENTRRFAAGHAANNALLWGARGMGKSSLVKAIHGALVTDHPELKLVELQREDLPSVARLLNHLRGAPCRFILFCDDLSFSHDDQHYKSLKAVLDGGIEGRPENVVFYATSNRRHLMPRDMIENERSSAINPSEAVEEKVSLSDRFGLWLGFHPCNQDAYLAMIEGYCAAYGVTVDPERLRAEAIEWQATRGARSGRVAWQFFTDLAGREGVALR | not soluble |
| MGSDKIHHHHHHLTDLKDALRTEALDAGFAKMGVCSPNAVPETAARLKAFVDAGFHGQMGWMAERMHWRGDASALWPEAKSVVMLAEPYTPDSDPLDALARKDRATISVYAQGRDYHDLVKKRLKRVGRWLLAQCPGEQIKVFVDTAPVMEKPLAQAAGLGWQGKHTNLLARDLGNWVFLGAIFTTVELPIDEPEAEHCGSCTACLDICPTNAFPAPFQLDARKCISYLTIEHKGPVDLALRAKLGNRIYGCDDCLAVCPWNKFAQTARDIRYAPRDDLRSPLLADLAALDDAGFRARFSGSPIKRIGRDRFVRNILYAIGNSGQAKLVDAARPLTDDPDVAVADAARWAMERLL | not soluble |
| MGSDKIHHHHHHMAAKLFGIMMINVQSIELSIVNLRTLRQVERVRSDVSLGEDIYDQHTIDYDSVEQAAQALSGFVQIMNDYGVKDYHLWGSWSLSSANNADYIQDQLLVRTGLKIDWLSSSQETYLRSVAVAVHFPRFKQMITKPTYLLGINSGSVGISHYDQSNFVFSRSLRLGPVRIAEVLEDLQSSVPNYVEVLDDYISSQIVDFGRFLPGRRDQPSNVVMLGVAPFATLFRQQQSKAGVEELSKADFQALYEDVLNASDQYLMDKYEVDEEDVRLIVPELLLINELLQLTNAEKIWLGNVTVLDGLIIQEAIKLGYKKYNFNDQIVTAAKNIADRYNVEPKHRDLVTKFSLHLFDQLKPLHHLGKRERLLLQVAAIVHDVGSYIDPHQHYLHSDYILQATELMGLTDTEKRMVALISRYHSAQTPSKDIRHFGHLQVEQRLLVSKLSAILRIADALDDGRKQKIDKISVSIRNPRVIITCFAHDDLFLENWVFAQKAEFFKEVFGLTPVIKLRGVR | not soluble |
| MGSDKIHHHHHHMAATNYSQTIKNDTKDFITTAILQLLGIQKTFEKPKNLAQLTVSNVCKRAGVSRMAFYRNFESIDQVIYQYYQPQISQSFEIIRQNVSASSKIENQLKFFEEFKDDLFLSESQGYEPIIRQIYIEEIEKFYEKTNDEYFITFVANGVYALWRKWLMNGQDKSIEEIHELIRKIVTI | not soluble |
| MGSDKIHHHHHHMADIALFQDDAFSLSSLTAAINEQPHVPGRVGALGLFEEDGITTTTIQIERDGDTLSLVSAGERGSPSAIVVGSKRTMIPFNTVHLPQRAFVKADEIQNLRAFGSETELEALQTVVNRRLAKLRRQLDATHEFHRIGAIKGAVLDADGKTVLIDLLQYFGIEQTVIPFELGKADTEIRVKCLEVQDAIEDALGATTYTGVRVLCGRAFWNKLIVAKTVKETYLATAMAASLRGDAREALDFGGCTFERYRGRVGDIGYVADDEAYAVPEGVPELFVTRFAPADYVEAVNTTGLPYYAKQELAQFGKGVDIEAQSNPVHLCTRPKAIVKLKA | not soluble |
| MGSDKIHHHHHHMADKPFRLVTRSDFDGLVCATLLKELALIDEITFVHPKDMQDGQIPVTERDITTNLPYVEGVHLCFDHHLSETIRVGKKANHIIDPLAPSAARVVYNYFGGKARFPRIPDDMMDAVDKGDSAQYNMEEVLHPGGWELLNFLMDARTGLGRFREFRIPNYQLMMELIDYCRDHAIEDILDLPDVSERVDLYREHEPRFKEQLKRCSTVHGNLVVLDLRDEDPIWAGNRFMIYALYPETNISIHVLWGRERRNTVFAVGKSIFNRSSNTNIGELMLGYGGGGHHAAGTCQVDNAQAADVLARLIARITEDG | not soluble |
| MGSDKIHHHHHHMADTTPDVETDKCDDLLESLRRGRPAAGQDPVKRSQIIDGARRVFIEKGFEAASMNDITREAGVSKGTIYVYFANKEELFEALIEEERGTIFKNMYDMLDRADDLRQTLVKFGKVLSMKITSARVIQAQRTVIGASDRIPDMGARFYERGPKRGHDKVVKFLNAAIERGLLKIDDVDLAAYQFTELCLAGLFRQCIFAYRTKAPSQEEIDHIVRSGVDMFLKNYGTEQLAEEESHQMIALEAKA | not soluble |
| MGSDKIHHHHHHMAEERVEPKPIDLGEYKFGFHDDVEPVLSTGKGLNEGVIRELSAAKGEPEWMLEFRLKSYETFKKMPMQTWGADLSEIDFDDLIYYQKPSDKPARSWDDVPEKIKETFERIGIPEAERAYLAGASAQYESEVVYHNMKEEFQKLGIIFTDTDSALKEYPDLFKQYFAKLVPPTDNKLAALNSAVWSGGTFIYVPKGVKVDIPLQTYFRINNENIGQFERTLIIVDEGASVYYVEGCTAPTYSSNSLHAAIVEIFALDGAYMRYTTIQNWSDNVYNLVTKRAKAQKDATVEWIDGNLGAKTTMKYPSVYLDGEGARGTMLSIAFANAGQHQDTGAKMIHNAPHTSSSIVSKSIAKGGGKVDYRGQVTFNKNSKKSVSHIECDTIIMDDLSASDTIPFNEIHNSQVALEHEAKVSKISEEQLYYLMSRGLSESEATEMIVMGFVEPFTKELPMEYAVELNRLISYEMEGSVG | not soluble |
| MGSDKIHHHHHHMAEKFDAIVVGAGPAGNAAAYTMAKAGLSVLQLERGETPGTKNVQGAILYADALERIIPDFRDDAPLERHIIEQRMWVLDEKSFIGTNYRSDAFNSDQPNRYTILRAPFDKWFSGKVKEAGALVICETTVTELIQEGKKVIGVRTDREGGDIYADVVILADGVNSLLAKKAGFHGELEAKNVALAVKEIHFLPEEIVQSRFNIKGNEGVVIEIAGAVTHGMVGTAFLYTNKESITLGIGCLLSDFKNAGIAPYTLLEKLKAHPAIAPLIEGGEMKEYAAHLIPEGGYKAVPTLYGEGWMIAGDSAGLVNAVHREGSNLAMTSGRLAAETVIALKEMKLPCTAPHLARYKTALDDSFVMKDLRKYKELPDILHGNPHFFSVYPQLLNRAAHTMLMVDGQDKHSKEKTIRGSFVQQRSLWGLVGDAYRMWRATR | not soluble |
| MGSDKIHHHHHHMAEQQKTAAATAEAEAIDLGEFSGLLEKDFKVKKDDSEKLQQLVRNLALAAQSRSETTTISSNAIKSIKSLIAGIDKMLTTQVNEILHAPEVREMEGTWRGLWYLINNTETDTKLKIRVMNISKEQLADTLEDYEGQMWDQSPIFKKVYTDEYSMLGGEPIGCIIGAYEFSNHPRDVGLLRNISGVCASAHTPFIAAASPRLFRMDSWQELPNPQDLQMIVNNPAYASWQSLRESEDARYIGLTMPRVLARLPYGSETVPVKGFTFEEEVGGDHNKYVWMNAAFPMGVNINRSHKLYGWGTQIRGVENGGTVLNLPVHAFPTDDGSIAMKCPTEVAIDDRREAELAKLGLMPILHRKNTDLAAFIGAHSLQDDETRAGRLVDPDAQSNERLSANLPYLFPVSRFAHYLKAIARDKIGSFKERTDMEIWLTEWINRYVLANPAFADDKARAKRPLAAAEVQVDSVEGRPGYYNARFYLRPHYQLEGINASLRLVSELPSVKG | not soluble |
